Results from article doi:10.1101/2025.09.24.25335646 (medRxiv, 2025).

What was measured:
[1] = biological target: A/New York/631/1996 H3N2 hemagglutinin head domain (HA1 43-309) (Influenza A virus A/New York/631/1996 …, strain); experiment: crystal structure
[2] = biological target: A/California/07/2009 H1N1 hemagglutinin, recombinant HA used for negative-stain EM (Influenza A virus A/California/07/2009 …, UniProt C3W5X2, strain); experiment: negative-stain EM

B1: Fab 3_H2 (Fab, V domains shown)
VH: QGTLKESGPAMVKPTQTLTLTCTFSGFSLDTSGMCVAWIRQPPGKALEWLALFDWDNNKYYSPSLKTRLNMSKGRSRNQVVLTMTNMDPVDTGTYYCARKVYGSFYYGMDVWGQGTTVTVSS
VL: DIVLTQSPATLSLSPGDSATLSCRASQDVSANLAWYQQKPGQAPRLVIYDATNRATGIPARFSGSGLGTDFTLTISSLEPEDFAVYYCQQRSNWPPVYTFGQGTKLEIK
Question: Does B1 bind [1]?
Answer: Result: binds

B2: Fab 49_C09 (Fab, V domains shown)
VH: QSTLKESGPTLVKPTETLTLTCTFSGFSLHTSGVGVGWIRQPPGKALECLALIYWNDDARYSPSLQSRLTITKDTSKNQVVLTMSNMDPVDTATYYCAHKGGGRDGYNSAAFDVWGQGTMVTVSS
VL: SYVLTQPPSVSVAPGQTARIPCGGNNIGMKTVHWYQQRPGQAPVVVVYDDSRRPSGIPERFSGSNSGNTATLTISRVEAGDEADYYCQVWDSSVNHWVFGGGTKLTVL
Question: Does B2 bind [1]?
Answer: Result: binds

B3: 3_H2 monoclonal antibody (IgG1) (antibody, V domains shown)
VH: B1 VH
VL: B1 VL
Question: Does B3 bind [2]?
Answer: Result: binds

B4: 49_C09 monoclonal antibody (IgG1) (antibody, V domains shown)
VH: B2 VH
VL: B2 VL
Question: Does B4 bind [2]?
Answer: Result: binds
